± gives the uncertainty stated by the source.

B1: E3 ubiquitin-protein ligase Midline-1, residues 172 to 214; numbered along this chain, O15344 (parent)
chain: GLMCLEHEDEKVNMYCVTDDQLICALCKLVGRHRDHQVAALSE

Variants of B1 are the subject of this series. The series can be described thus: abundance fitness (aPCA) (normalised: wild type 0, dead -1); higher = more abundant; growth selection in yeast, the domain comes from the species named. The following applies: Homo sapiens.
For the variant GLMCLEHEDEKVNMYCVTDDQLICALCKLWGRHRDHQVAALSE [V30W], the abundance fitness was -0.309 ± 0.077.

Consider GLMCLEHEDEKVNMYCVTDDQLICALCKLRGRHRDHQVAALSE [V30R], for which the abundance fitness was -0.055 ± 0.051.

GHMCLEHEDEKVNMYCVTDDQLICALCKLVGRHRDHQVAALSE [L2H]: the abundance fitness was 0.147 ± 0.085.

In the case of GVMCLEHEDEKVNMYCVTDDQLICALCKLVGRHRDHQVAALSE [L2V], the abundance fitness turned out to be 0.233 ± 0.061.

Regarding GLMCLEHEDEKVNMYCVTDDQLICALCKLVGRHDDHQVAALSE [R34D], the abundance fitness is -0.169 ± 0.087.

Turning to GLMCLEHEDEKVNMYCVTDDQLICALCKLVGRHGDHQVAALSE [R34G], the abundance fitness was found to be 0.048 ± 0.048.

Regarding GLMCLEHEDEKVNMYCVTDDQLICALCKLVGRHRDHQVDALSE [A39D], the abundance fitness worked out at 0.088 ± 0.064.

Consider GLMCLEHEDEKVNMYCVTDDQLICALCKLVGRHRDHQVMALSE [A39M], for which the abundance fitness is -0.089 ± 0.083.

Take GLMCLEHEDEKVNMYCVTDDQLICALCKLVGRHRDHQVCALSE [A39C]: the abundance fitness stood at 0.003 ± 0.078.

In the case of GLMCLEHEDEKVNMYCVTDDQLICALCKLVGRHRDHQVAAMSE [L41M], the abundance fitness turned out to be 0.069 ± 0.093.

Regarding GLMCLEHEDEKVNMYCVTDDQLICALCKLVGRHRDHQVAANSE [L41N], the abundance fitness was -0.034 ± 0.099.

For the variant GLMCLEHEDEKVNMYCVTDDQLICALCKLVGRHRDHQVAAHSE [L41H], the abundance fitness turned out to be 0.172 ± 0.075.

As for GLMCLEHEDEKVNMYCVTDDQLICALCKLVGRHRDHQVAATSE [L41T], the abundance fitness was found to be 0.12 ± 0.057.

Consider GLMCAEHEDEKVNMYCVTDDQLICALCKLVGRHRDHQVAALSE [L5A], for which the abundance fitness worked out at 0.023 ± 0.051.

For the variant GLMCREHEDEKVNMYCVTDDQLICALCKLVGRHRDHQVAALSE [L5R], the abundance fitness is -0.062 ± 0.054.

For GLMCYEHEDEKVNMYCVTDDQLICALCKLVGRHRDHQVAALSE [L5Y], the abundance fitness was -0.021 ± 0.16.

With GLSCLEHEDEKVNMYCVTDDQLICALCKLVGRHRDHQVAALSE [M3S], the abundance fitness turned out to be 0.006 ± 0.06.

Turning to GLDCLEHEDEKVNMYCVTDDQLICALCKLVGRHRDHQVAALSE [M3D], the abundance fitness came out at 0.018 ± 0.21.

With GLCCLEHEDEKVNMYCVTDDQLICALCKLVGRHRDHQVAALSE [M3C], the abundance fitness is -0.21 ± 0.21.

As to GLLCLEHEDEKVNMYCVTDDQLICALCKLVGRHRDHQVAALSE [M3L], the abundance fitness was -0.05 ± 0.072.

On to GLFCLEHEDEKVNMYCVTDDQLICALCKLVGRHRDHQVAALSE [M3F], for which the abundance fitness turned out to be 0.111 ± 0.13.

On to GLMCLEHEDEKVNMYCVTDMQLICALCKLVGRHRDHQVAALSE [D20M], for which the abundance fitness is -0.067 ± 0.27.

In the case of GLMCLEHEDEKVNMYCVTDTQLICALCKLVGRHRDHQVAALSE [D20T], the abundance fitness is -0.232 ± 0.087.

Consider GLMCLEHEDEKVNMYCVTDNQLICALCKLVGRHRDHQVAALSE [D20N], for which the abundance fitness amounted to 0.033 ± 0.19.

With GLMCLEHDDEKVNMYCVTDDQLICALCKLVGRHRDHQVAALSE [E8D], the abundance fitness is -0.165 ± 0.09.

For GLMCLEHKDEKVNMYCVTDDQLICALCKLVGRHRDHQVAALSE [E8K], the abundance fitness stood at 0.221 ± 0.074.

With GLMCLEHEDEKVNMYCVTDDQLFCALCKLVGRHRDHQVAALSE [I23F], the abundance fitness was -0.38 ± 0.31.

Take GLMCLEHEDEKVNMYCVTDDQLRCALCKLVGRHRDHQVAALSE [I23R]: the abundance fitness was -0.237 ± 0.09.

For the variant GLMCLEHEDEKVNMYCVTDDQLICALCKKVGRHRDHQVAALSE [L29K], the abundance fitness is 0.182 ± 0.073.

As for GLMCLEHEDEKVNMYCVTDDQLICALCKRVGRHRDHQVAALSE [L29R], the abundance fitness is 0.227 ± 0.047.

GLMCLEHEDEKVCMYCVTDDQLICALCKLVGRHRDHQVAALSE [N13C]: the abundance fitness was -0.13 ± 0.1.

Consider GLMCLEHEDEKVTMYCVTDDQLICALCKLVGRHRDHQVAALSE [N13T], for which the abundance fitness is -0.043 ± 0.11.

In the case of GLMCLEHEDEKVEMYCVTDDQLICALCKLVGRHRDHQVAALSE [N13E], the abundance fitness is -0.084 ± 0.063.

With GLMCLEHEDEKVNMYCVTDDQLICALCKLVGRHRQHQVAALSE [D35Q], the abundance fitness was determined as 0.034 ± 0.065.

Regarding GLMCLEHEDEKVNMYCVTDDQLICALCKLVGRHREHQVAALSE [D35E], the abundance fitness amounted to 0.088 ± 0.056.

Take GLMCLEHEDEKVNMYCVTDDQLICALCKLVGRHRIHQVAALSE [D35I]: the abundance fitness is -0.496 ± 0.23.

With GLMCLEHEDEKVNMYCVTDDQLICALCKLVGRHRTHQVAALSE [D35T], the abundance fitness was -0.042 ± 0.17.

GLMCLEHEDEKLNMYCVTDDQLICALCKLVGRHRDHQVAALSE [V12L]: the abundance fitness was -0.233 ± 0.11.

For the variant GLMCLEHEDEKFNMYCVTDDQLICALCKLVGRHRDHQVAALSE [V12F], the abundance fitness was determined as 0.301 ± 0.3.

Turning to GLMCLEHEDEKANMYCVTDDQLICALCKLVGRHRDHQVAALSE [V12A], the abundance fitness is -0.208 ± 0.09.

As to GLMCLEHEDEKVNMYCVLDDQLICALCKLVGRHRDHQVAALSE [T18L], the abundance fitness is -0.32 ± 0.066.

GLMCLEHEDEKVNMYCVVDDQLICALCKLVGRHRDHQVAALSE [T18V]: the abundance fitness was -0.077 ± 0.064.

On to GLMCLEHEDEKVNMYCVTDDQLICALCKLVGRHRDTQVAALSE [H36T], for which the abundance fitness was -0.689 ± 0.13.

Turning to GLMCLEHEDEKVNMYCVTDDQLICALCKLVGRHRDRQVAALSE [H36R], the abundance fitness was -0.669 ± 0.079.

On to GLMCLEHEDEKVNMYCVTDDQLICALCVLVGRHRDHQVAALSE [K28V], for which the abundance fitness was -0.396 ± 0.068.

With GLMCLEHEDEKVNMYCVTDDQLICALCPLVGRHRDHQVAALSE [K28P], the abundance fitness was determined as 0 ± 0.074.

Take GLMCLEHEDEKVNMYCVTDDQLICARCKLVGRHRDHQVAALSE [L26R]: the abundance fitness is 0.272 ± 0.053.

In the case of GLMCLEHEDEKVNMYCVTDDQLICAQCKLVGRHRDHQVAALSE [L26Q], the abundance fitness is 0.387 ± 0.077.

GLMCLEHEDEKVNMYCVTDDQLICAYCKLVGRHRDHQVAALSE [L26Y]: the abundance fitness was -0.041 ± 0.11.

For the variant GLMCLEHEDEKVNMYCVTDDQLICADCKLVGRHRDHQVAALSE [L26D], the abundance fitness amounted to 0.089 ± 0.075.

For the variant GLMCLEHEDEKVNMYCVTDDQLICALCKLVGPHRDHQVAALSE [R32P], the abundance fitness is -0.022 ± 0.073.

For GLMCLEHEDEKVNMYCVTDDQLICALCKLVGFHRDHQVAALSE [R32F], the abundance fitness is -0.593 ± 0.36.

In the case of GLMCLEHEDEKVNMYCVTDDQLICALCKLVGGHRDHQVAALSE [R32G], the abundance fitness was 0.061 ± 0.048.

In the case of GLMCLEHEDEKVNMYCVTDDQLICALCKLVERHRDHQVAALSE [G31E], the abundance fitness is -0.154 ± 0.064.

As to GLMCLEHEDEKVNMYCVTDDQLICALCKLVMRHRDHQVAALSE [G31M], the abundance fitness is -0.514 ± 0.087.

For GLMCLEHEDEKVNMYCVTDDQLICALCKLVQRHRDHQVAALSE [G31Q], the abundance fitness is -0.438 ± 0.13.

With GLMCLEHEDEKVNMYCVTDDQLICALCKLVGRHRDHYVAALSE [Q37Y], the abundance fitness is -0.169 ± 0.13.

For the variant GLMCLEHEDEKVNMYCVTDDQLICALCKLVGRHRDHDVAALSE [Q37D], the abundance fitness came out at 0.105 ± 0.12.

Consider GLMCLEHEDEKVNMYCVTDDQLICALCKLVGRHRDHPVAALSE [Q37P], for which the abundance fitness is -0.015 ± 0.08.

For the origin of these results see the Human Domainome abundance scans (Beltran et al. 2025).
